A short description of this data set: Dynamic light scattering. It counts as physicochemical. The following applies: 37 °C, fractions eluted from SEC (CIB2 A2 band), mean ± SEM; n = 15 (CIB2), 18 (Rec), 30 (CaM); 1.8 µM CIB2, 11 µM Rec, 7.4 µM CaM. The method, then:
DLS measurements were performed using Zetasizer Nano-S (Malvern Instruments) at 37 °C by setting the same parameters for hydrodynamic diameter estimation as in ref.[26]. The estimation was based on 15–30 measurements, each consisting of at least 13 repetitions; data in Table 1 are reported as mean ± standard error of mean (SEM). DLS samples for each protein are the same collected in the Analytical Size Exclusion Chromatography.
His-tagged proteins, and then blocked via amine coupling as explained above. Preparation of the […]
approximately 2250 RU of CIB2 immobilized. In binding experiments, peptide concentration was varied in the 230 nM- 30 μM range for both α7B_M, and α7B_C, and experiments were repeated 4 times, both with the HBS buffer described above (containing 1 mM MgCl2) and with further addition of 2 mM CaCl2. Flow rate was set to 20 μl min−1 in all binding experiments, and the dissociation […]
Figure S1: DLS measurements of the SEC collected peaks. CIB2 band A2 (A), Rec (B) and CaM (C). Each data set consisted of 15-30 measurements (grey lines), with 13-15 repetitions each. Colored lines are referred to the average distribution. Temperature was set to 37°C and samples were equilibrated for 2 min before measurements.
Figure S2: Time-resolved proteolysis experiments. […]

Values joined by “and” are separate entries in the source; they are usually repeats but may differ in a detail not shown here. Equal values may be shown once.

B1: CIB2: Recombinant human CIB2, Ca^2+ and Mg^2+-binding protein (protein)
chain: MGNKQTIFTEEQLDNYQDCTFFNKKDILKLHSRFYELAPNLVPMDYRKSPIVHVPMSLIIQMPELRENPFKERIVAAFSEDGEGNLTFNDFVDMFSVLCESAPRELKANYAFKIYDFNTDNFICKEDLELTLARLTKSELDEEEVVLVCDKVIEEADLDGDGKLGFADFEDMIAKAPDFLSTFHIRI
modifications: left off: His tag, end not stated, cleaved
Turning to B1, the “DLS Ø hydrodynamic diameter” value is 5.4 ± 0.2 nm and 5.4 ± 0.2 [15] nm.

(Values after PMC6803640, “Oligomeric state, hydrodynamic properties and target recognition of human Calcium and Integrin Binding protein 2 (CIB2)” (Scientific Reports, 2019).)
